According to the supplement of paper PMC12042874:
± gives the uncertainty stated by the source.

Test: amyloid nucleation score (Sup35N fusion, yeast selection) (log enrichment); library NNK3; higher = more nucleation; inactive = no reads after selection
How it was run: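 The nucleation score is a DiMSum log enrichment of output over input reads, centred on the mode score of non-aggregating sequences. Sequences under 100 input reads were excluded, and reads came from Illumina sequencing of plasmid inserts. Psi-negative yeast expressing Sup35N fused to peptides of 20 random codons were induced with 100 μM copper sulfate for 24 hours and grown 7 days at 30°C on medium lacking adenine and uracil. Random libraries had three technical output replicates.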

| Substance | amyloid nucleation score |
| --- | --- |
| CIAMGTISFQFPVLMRYYLC | inactive |
| CILYLHIAALVLLI | -1.33 ± 2.5 |
| CINVFMQEPPPINIRWNCRE | 2.54 ± 0.061 |
| CITSNVMRSSRLKLV | inactive |
| CKCYYGTSDFCGVGFETASR | inactive |
| CKFCFSAIFSLLYNRIGAPQ | inactive |
| CKKGRLVGRSRCLVCWMCCM | -0.155 ± 0.96 |
| CKLCTFSKRLNLTFRMVASL | inactive |
| CKMLNYFLCT | 1.1 ± 0.13 |
| CKYLPLRNYGSCSPGYGKYV | inactive |
| CLFFKHLLLGDDVLLLTYLR | inactive |
| CLFGLGVEAKVFIYQGDDQS | inactive |
| CLFQIIVNTSYIGKFHTVLG | 1.88 ± 0.057 |
| CLFYIRS | inactive |
| CLGIGWFWVPWRLGVYSQMV | inactive |
| CLHEDCRMTADSLPSLRKDR | inactive |
| CLLPFTTGYDFFLHQIEGWG | inactive |
| CLLPVSVTLTASFLCQHVRY | 0.004 ± 0.75 |
| CLLVRTIMRVLYFWMES | inactive |
| CLNNVLLASPPNCAGNL | inactive |
| CLRSVDDWFKC | inactive |
| CLSLYL | inactive |
| CLTIHWTVFSGAARLSFIMT | inactive |

| Substance | amyloid nucleation score |
| --- | --- |
| CLVNWPMWENPWSPHFGSNY | inactive |
| CLVSTGYHVRCVIVFMTTQG | inactive |
| CLYRGGFSFYDFSGFCVLSS | inactive |
| CMGYRFC | inactive |
| CMIELRSR | inactive |
| CMLNRNFWVVYSHVGRRRL | inactive |
| CMLSMFSCCCFDSPRRYCH | 2.36 ± 0.051 |
| CMSDF | inactive |
| CMSRYVDSYFNLAYRDRFLW | 0.451 ± 0.47 |
| CMSTKTNFT | inactive |
| CNAYLAYARYIYTHGWPRSL | inactive |
| CNFDKTLRSHDDQLAVGITV | inactive |
| CNFERFALCDYLSVLFNFQR | 1.54 ± 0.13 |
| CNGLFIGPML | inactive |
| CNGLNRIVDLNWNMMSIMRS | inactive |
| CNKYMKVCLGMGKVQTKNGV | inactive |
| CNVLEKYTLE | inactive |
| CNVNTLIFGRESNSSEHKHW | 1.83 ± 0.081 |
| CNVTLSSTYEK | inactive |
| CNYSVVFCCNFWDYYLKECA | 2.5 ± 0.06 |
| CPRDNVSIVKWWLAYRDSHA | inactive |
| CQIEILLPLDVLY | 1.06 ± 0.09 |
| CQLRGEFDSVAVNNVCIAML | inactive |

| Substance | amyloid nucleation score |
| --- | --- |
| CQRPWNRTRR | inactive |
| CQVGRKRLLYVFTGYK | inactive |
| CQVWFTYYYLLGSTNDSMAR | inactive |
| CRCMTR | inactive |
| CRCPSYMFHA | 0.703 ± 0.17 |
| CRFKGCWYSRTLRRRRSVIV | inactive |
| CRFSGCNESLGWKVGSTLVM | inactive |
| CRGTWDNDAVGRVDRNSRKS | inactive |
| CRIYCLLPISMIGSCSFIVH | inactive |
| CRLANHLEIAVAVTSYEGED | inactive |
| CRNESLACSKMSPSQRRSYT | inactive |
| CRTQMPSIFDL | inactive |
| CRVEVAICHRPLCSKVTLDG | inactive |
| CSGIIRNMLWGV | inactive |
| CSGQVQ | inactive |
| CSIPFVWEIHHM | inactive |
| CSKNRQSELRALGSYI | inactive |
| CSLQNVTVGLLHSQVVSRWE | inactive |
| CSLTCWSVVRVFQYEILRE | inactive |
| CSLTKAVFQRQPLRRSKGTK | inactive |
| CSLYNLDRVTWTG | 0.219 ± 0.41 |
| CSPGTSCFGIKPRSSLSTTI | inactive |
| CSRLAQWFMLVSF | inactive |

| Substance | amyloid nucleation score |
| --- | --- |
| CSRWMWPENYRFSSEVPWYI | inactive |
| CSTISVTLALV | inactive |
| CSWVGAMFVQWNLPAPTEGI | 0.341 ± 0.37 |
| CTDRRVRWGYGFKFRFGHGD | inactive |
| CTLQYWGKIIPNERSRSRIV | inactive |
| CTLRTVCHTGLLWVTFHRQY | 0.675 ± 0.18 |
| CTSCILYFLLIYYHYNSS | inactive |
| CTSTLMEFSFSYEWSNGCCS | inactive |
| CTVLKYFLRYRRSHDL | inactive |
| CVAAV | inactive |
| CVAKK | inactive |
| CVEAEDNFVLLKEGHAAWDV | inactive |
| CVEVY | inactive |
| CVFKTNVNGLMEEVLSGFKY | inactive |
| CVFPCMFLEFTMTDMKLYSS | inactive |
| CVGVCKNLNRWFH | inactive |
| CVLWYCCYTQLSMQKCNSRM | inactive |
| CVNKFLSVPSIDSEDFCYLV | inactive |
| CVPWWLNMPVLDCTLWNSSV | inactive |
| CVTVNIELLTWITACGNFTL | 1.62 ± 0.075 |
| CVVGDPSGVK | 0.62 ± 0.13 |
| CVWAYLRLHGKWAF | 0.598 ± 0.34 |
| CVWILSQLG | -0.797 ± 1.9 |

| Substance | amyloid nucleation score |
| --- | --- |
| CWWCCATGTHSSSYIGRGVH | 0.844 ± 0.24 |
| CYDDRHENHHYGE | inactive |
| CYEPVAGVFCMRIGLTVVGN | inactive |
| CYFRVAHVLDSRILSRPGML | inactive |
| CYIVGVVGLSTDWFMSGHSD | 0.035 ± 0.9 |
| CYMADNVLVGFTFVGIQEMK | inactive |
| CYSVDRDV | inactive |
| CYYTKVNVSS | 0.021 ± 0.26 |
| DAGELNILI | inactive |
| DAHNRASLSYVPSYYVSFTA | inactive |
| DAIRQTSHMKLRSSYMQARR | inactive |
| DCCKFFLKDSRSRSFSWSIY | 1.66 ± 0.08 |
| DCDRILLV | inactive |
| DCERVFSYMRKDQVPPVTLS | inactive |
| DCFLLSTIVALYRDYRYIGT | inactive |
| DCGKRSTTINFAWNGAVQPD | 1.04 ± 0.18 |
| DCMSHLLF | inactive |
| DCSFMPTLYLGPTTFFFWHL | 2.25 ± 0.064 |
| DCTSILELVGGARPTHSGLE | inactive |
| DCVYSSPCGVALIDLGAGLK | inactive |
| DCYKRSVMLKAARSWVNRSL | inactive |
| DDCIIRAGWDLLQR | inactive |
| DDDLHWWKYRCVACDSLWEI | inactive |

| Substance | amyloid nucleation score |
| --- | --- |
| DDGFYMSVGIVSWFC | 0.843 ± 0.13 |
| DDRVVPVLYQTCSAVRR | inactive |
| DEMLHGCPDRVPNLGWY | inactive |
| DERKNSIDSR | inactive |
| DEYTSNVVSNFFEIRLWFFI | inactive |
| DFARFIPFRPDFNFWGRLTG | inactive |
| DFHSLKNDF | inactive |
| DFMWLKGLNPSTLSLPWD | inactive |
| DFTLTPMWRHFEGFNKVAWG | inactive |
| DFWLHCGDK | inactive |
| DFYRSEQGDWSNLHSC | inactive |
| DGVALFNVVRFVVGIDILLI | inactive |
| DHLQVHYCGRHVLGAKKFAR | inactive |
| DHLSVWVSRLDTINCLREVG | inactive |
| DHLWIPPWLYAPAMLWSWML | inactive |
| DICEIRTTIRAC | inactive |
| DIDRRQRVMHSPMKAWEEVG | -0.045 ± 0.98 |
| DIHVKNCVVCMYSG | 2.44 ± 0.057 |
| DIIYTFHHAVNRLNKIFSV | inactive |
| DIVANYQMM | inactive |
| DIVTTHVGKSLG | inactive |
| DKGVVPL | inactive |
| DKMIGWGDWSSLY | inactive |

| Substance | amyloid nucleation score |
| --- | --- |
| DKTYYYRDDSLV | inactive |
| DLFKCGRGHVIFVLSRLLIS | -0.459 ± 1.1 |
| DLGHQMVVRRHVLFLICCCN | inactive |
| DLIGYSEEV | 0.449 ± 0.19 |
| DLISEKEQEPGRD | 0.406 ± 0.21 |
| DLKTWSMLSFFGMYATYLIK | inactive |
| DLRCHGYC | inactive |
| DLRSITMCWCIIPTGRCVVA | inactive |
| DLSMGNCEVVGLESSTTICK | inactive |
| DLTDNVFYWSRNTIDEVRVR | inactive |
| DLTNEMQVCVNV | -0.17 ± 0.88 |
| DLWAIGWGPFRVCSLLPWPL | inactive |
| DLYCMPLAAVLFGGGC | inactive |
| DMGLYLFFIYLCGVRDLLST | inactive |
| DMIVNYCTAQRSFVSIVSIK | inactive |
| DMWKFTRLLFFCDSKRCSAD | inactive |
| DNLTVTFRCLHAYLGGLDFD | inactive |
| DNQFICLFVVEIGIVYDSYA | inactive |
| DNSCVMMKTGGRYFELFRVV | inactive |
| DNSSLSMK | inactive |
| DNVSKSSIHTTLVLASFLCS | 1.55 ± 0.11 |
